{"source": "patent US20030143740", "about": "“Processes for transposase mediated integration into mammalian cells” (published 2003)", "biological_target": "hyperactive Tn5 transposase (EK54, MA56, LP372) expressed from pMIR86 (UniProt Q46731 Q46731:1-476, E54K,M56A,L372P)", "assay": "cell_activity; NIH3T3 co-transfection", "settings": "tags: pCI mammalian expression vector; chain copies: 2; PshA I blunt-ended linear transposon, ME inverted repeats at both ends", "excerpt": "C. Tn5 transposase expressed in eukaryotic cells increases the number of integration events. Plasmid pMIR86 encoding transposase was co-transfected into NIH3T3 cells with transposon plasmid pMIR136 (pSEAP-Tn). The pMIR136 was either linearized with PshA I to form the transposon (SEAP-Tn), or cut with Eco R V/Sse8387 I to remove Tn5 elements from the transposon (SEAP), or left supercoiled (pSEAP-Tn). Control reactions included the same transposon DNA samples but with pCI-Luc (Promega) instead of pMIR86. […] No increase in colonies was observed when linear transposon DNA lacking flanking recognition elements was used."}
{"binder": "SEAP-Tn linear transposon with mosaic ends (dsDNA) DNA 1: CTGTCTCTTATACACATCT DNA 2: AGATGTGTATAAGAGACAG", "values": [{"measurement": "activity", "result": "1.6 fold colonies vs control plasmid"}]}
